Substrate in this data set: Nc1ncnc2c1ncn2[C@@H]1O[C@H](COP(=O)(O)OP(=O)(O)O)[C@@H](O)[C@H]1O
In words: purified protein. Format: biochemical, Thermococcus litoralis. Particulars: co-substrate D-glucose varied, Mg2+ (constant free Mg2+), 25 mM Hepes pH 7.8, 40 °C, ordered Bi-Bi, first substrate.

B1: TlGK (ADP-dependent glucokinase from Thermococcus litoralis) (Thermococcus litoralis DSM 5473) (protein)
chain: MKESLKDRIRLWKRLYVNAFENALNAIPNVKGVLLAYNTNIDAIKYLDKDDLEKRVTEIGKEKVFEIIENPPEKISSIEELLGGILRSIKLGKAMEWFVESEEVRRYLREWGWDELRIGGQAGIMANLLGGVYRIPTIVHVPQNPKLQAELFVDGPIYVPVFEGNKLKLVHPKDAIAEEEELIHYIYEFPRGFQVFDVQAPRENRFIANADDYNARVYMRREFREGFEEITRNVELAIISGLQVLKEYYPDGTTYRDVLDRVESHLNILNRYNVKSHFEFAYTANRRVREALVELLPKFTSVGLNEVELASIMEIIGDEELAKEVLEGHIFSVIDAMNVLMDETGIERIHFHTYGYYLALTQYRGEEVRDALLFASLAAAAKAMKGNLERIEQIRDALSVPTNERAIVLEEELEKEFTEFENGLIDMVDRQLAFVPTKIVASPKSTVGIGDTISSSAFVSEFGMRKR
notes: recombinant, purified from LB culture as in Merino et al. (heat shock, ammonium sulfate, two chromatographic steps); two-domain enzyme
On to B1, for which the Michaelis-Menten constant (Km) – broadly, the concentration of substrate that gives half-maximal velocity – came to 8.6 µM.

The values are drawn from publication PMC3688580, “Crystal Structure, SAXS and Kinetic Mechanism of Hyperthermophilic ADP-Dependent Glucokinase from Thermococcus litoralis Reveal a Conserved Mechanism for Catalysis” (PLoS ONE, 2013).
